Results on three molecules are retold here after patent publication US8304236B2, “Modified biotin-binding protein” (Japan Tobacco Inc., priority 2008, dated 2012).

A short description of series [1]: Heat stability of protein structure (soluble protein after heating, SDS-PAGE). The class given is physicochemical. The following applies: heated for 20 minutes. On the procedure:
3-8) Heat Stability of HALU TM2 Protein Structure Each of 0.2 μg/μL TM2 mutant solutions (10 μL (2 μg)) was heated at room temperature, 50, 60, 70, 80, 90, or 99° C. for 20 minutes. Then, the solution was centrifuged at 15000 rpm for 10 minutes, and the soluble protein in the supernatant was suspended in the same volume of 2×SDS sample buffer (250 mM Tris-HCl, pH 6.8, 20% 2-mercaptoethanol, 20% SDS, 20% glycerol). The suspension was heated at 95° C. for 10 minutes, followed by SDS-PAGE. The protein bands were detected by CBB staining A standard curve was prepared using a quantitative marker (LMW ELECTROPHORESIS CALIBRATION KIT; Pharmacia Biotech) with Las-3000 (FUJIFILM) to quantify the protein bands.

The nature of series [2]: Isoelectric focusing electrophoresis (pI observed). The format is physicochemical. Particulars: pH 3 to 10 gel. On the procedure:
The isoelectric point of each low-pI TM2 was measured by isoelectric focusing electrophoresis using an XCell SureLock Mini-Cell (Invitrogen). In accordance with the instruction, each low-pI TM2 (500 ng) and an IEF sample buffer (pH 3 to 10 (2×), Invitrogen) were mixed and were added to a polyacrylamide gel (pH 3 to 10, IEF Gel, Invitrogen) at a pH ranging from 3 to 10, followed by electrophoresis at a variable voltage of 100 V for 1 hour, 200 V for 1 hour, and 500 V for 45 minutes in this order.
After the electrophoresis, the gel was shaken in a blotting buffer (0.7% acetic acid) for 10 minutes and then was transferred onto a PVDF membrane at 10 V for 1 hour using an XCell ll Blot Module (Invitrogen). The PVDF membrane was subjected to reaction with anti-TM2 rabbit antibody (PCT/W2006/326260) serving as a primary antibody and with alkaline phosphate-labeled anti-rabbit IgG antibody (BIO-RAD) serving as a secondary antibody, followed by detection of bands with Alkaline Phosphatase Substrate Kit II
The isoelectric point of the high-affinity TM2 was measured by isoelectric focusing electrophoresis using an XCell SureLock Mini-Cell (Invitrogen). […] The electric point of TM2 D40N having replacement of the […] amino acid was higher than that of the wild type TM2 also in the isoelectric focusing electrophoresis.
The isoelectric point of HALU TM2 was measured by isoelectric focusing electrophoresis using an XCell SureLock Mini-Cell (Invitrogen). In accordance with the instruction, bands of each HALU TM2 (4 μg) were detected by CBB staining. […] The observed isoelectric point of TM2 D40N was 9.7, and was reduced to 8.9 after introduction of mutation of R104E and was reduced to 7.3 to 7.5 after further introduction of mutation of K141E.

Series [3] concerns human serum protein. Kind of series: Non-specific adsorption of low-pI TM2 to human serum protein-immobilized magnetic beads. The class given is binding. On the procedure: In this embodiment, non-specific binding to human serum was investigated as non-specific adsorption of low-pI TM2 to serum protein-immobilized magnetic beads. Specifically, in order to investigate the non-specific binding of low-pI TM2, the amount of low-pI TM2 adsorbed to magnetic beads to which human serum protein was covalently bonded was measured. TM2 K26A, TM2 K73Q, TM2 R104E, TM2 K141E, and TM2 R104EK141E, which were highly expressed in Escherichia coli, were used as the low-pI TM2 to be investigated.
Human serum protein and magnetic beads were bound to each other as follows. Magnetic beads having surfaces coated with carboxyl groups (Dynabeads M-270 Carboxylic Acid, Dynal, 210 μL) were washed with 0.01 N sodium hydroxide (210 μL) for 10 minutes and then with ultrapure water (210 μL) for 10 minutes three times. To the washed magnetic beads, 1-ethyl-3-(3-dimethylaminopropyl)carbodiimide hydrochloride (EDC, PIERCE) dissolved in cooled ultrapure water was added into a final concentration of 0.2 M, and the mixture was shaken at room temperature for 30 minutes. Then, the magnetic beads were washed with cooled ultrapure water (210 μL) and then with 50 mM MES buffer (pH 5.0, 210 μL).
To the magnetic beads, 1 mg/mL human serum protein (CHEMICON, 210 μL) dialyzed with 50 mM MES buffer (pH 5.0) was added. The mixture was shaken at room temperature for 30 minutes to covalently bind the human serum protein to the magnetic beads. The magnetic beads were collected with a magnet to remove the supernatant. The unreacted active groups on the beads were eliminated with 50 mM tris buffer (pH 7.0, 210 μL), and then the magnetic beads were blocked with a PBS buffer (420 μL) containing 0.5% BSA and 0.1% Tween 20. The magnetic beads were suspended in a PBS buffer (210 μL) to obtain human serum protein-immobilized magnetic beads.
The magnetic beads (7 μL) and 0.56 μg/mL of each low-pI TM2 (100 μL) were mixed for reaction at room temperature for 1 hour. The magnetic beads were collected with a magnetic, and the supernatant was removed. After washing with 20 mM potassium phosphate buffer (500 μL) containing 500 mM sodium chloride, the magnetic beads were mixed with 20 μL of 2×SDS sample buffer (250 mM Tris-HCl, pH 6.8, 20% 2-mercaptoethanol, 20% SDS, 20% glycerol), followed by heating at 95° C. for 20 minutes to dissociate the low-pI TM2 from the magnetic beads.
This sample was subjected to SDS-PAGE and then western blotting analysis to determine the amount of the low-pI TM2. Anti-tamavidin 2 rabbit antibody and alkaline phosphatase-labeled anti-rabbit IgG goat antibody were used as the primary antibody and the secondary antibody, respectively. The bands were detected with Alkaline Phosphatase Substrate Kit II <VECTOR Black> (VECTRO) and were quantified with Las-3000 (FUJIFILM).

For a further series, the system named is Salmon sperm DNA. Nature of the series: Non-specific binding to DNA (membrane-adsorbed DNA, biotinylated HRP, ECL). Particulars: salmon sperm DNA 10 μg to 1 μg on membrane, 25 μg/mL protein. On the procedure: Salmon sperm DNA diluted stepwise from 10 μg to 1 μg with 2×SSC buffer was denatured with an alkali and was adsorbed to Hybond N+membrane (Amersham Biosciences) using Bio-Dot SF (BIO-RAD). After blocking the membrane with 5×Denhardt's solution (0.1% BSA, 0.1% ficoll, 0.1% polyvinylpyrrolidone), the membrane was immersed in 25 μg/mL of low-pI TM2 or the wild-type TM2 at room temperature for 90 minutes. Then, the membrane was washed with a TUBS buffer (TBS buffer containing 0.05% Tween 20) at room temperature for 5 minutes three times. The membrane was blocked with a TBS buffer containing 3% skimmed milk and 0.1% Tween 20 for 1 hour. The membrane was subjected to a reaction with biotinylated horseradise peroxidase (Vector) diluted 5000 times with a TBS buffer containing 3% skimmed milk and 0.1% Tween 20 at room temperature for 1 hour. The membrane was washed with a TBS buffer containing 0.1% Tween 20 again and was then shaken in a solution that is a mixture of reagent 1 and reagent 2 of ECL (Amasham) in the same volumes, followed by detection of the luminol reaction with Las-3000 (FUJIFILM).
The non-specific binding of HALU TM2 to DNA was analyzed by the process in paragraph 1-11) of Example 1.

Series [4] is described as follows: Biotin-binding test (Biacore 3000, biotin-LC-BSA immobilized). The following applies: Biotin-BSA (22.4 Å). On the procedure:
High-purity BSA (Sigma, 2 mg) and NHS-LC-biotin (Pierce, 1 mg) were dissolved in 50 mM sodium borate (pH 8.0, 1 mL) and were incubated at 4° C. for 2 hours. The solution was put into a dialysis tube (MWCO 6-8,000) and was dialyzed with 50 mM sodium carbonate (pH 6.7) at 4° C. overnight. The resulting biotin-LC-BSA conjugate (MW: 67 kDa, 30 μM) was used as a ligand for a Biacore (registered trademark) biosensor.
Biotin-LC-BSA and BSA serving as a negative control were immobilized on CM5 sensor chips by amine coupling method. The amount for immobilization was adjusted to about 200 RU. The chips to which BSA was immobilized were disposed in flow cells 1 and 3, while the chips to which biotin-LC-BSA was immobilized were disposed in flow cells 2 and 4.
Accordingly, seven step measurement (3.125, 6.25, […], 25, 50, 100, and 200 nM) was conducted from the lowest concentration, without recycling steps. The data of BSA as reference was deducted from the data of BSA-LC-biotin. The measurement was performed at 25° C. The resulting sensorgrams were subjected to reaction kinetics analysis using analysis software BIAevaluation ver. 4.1 with a 1:1 binding model to calculate the binding rate constant (ka) and the dissociation rate constant (kd). The dissociation constant (KD) was determined from kd/ka. In the case where no recycling step is employed, the Rmax (maximum amount of binding analyte) decreases at each measurement. Accordingly, in the analysis, the Rmax was calculated by conducting local fitting for each concentration, and only the data of analyte concentrations that were approximated to the 1:1 binding model was employed.
TM2 and HALU TM2 used as analytes were prepared by purification with 2-iminobiotin agarose in accordance with a common method and dialysis with 20MM KPi (pH 7) overnight. The analytes were each adjusted to about 50 μg/mL in 10 mM acetate buffer (pH 5, Biacore).
The immobilization of the ligand and measurement and analysis of specific interaction with the analytes were conducted as in paragraph 2-7-2).

For series [5], the system named is human serum protein. Nature of the series: Non-specific adsorption of serum protein to HALU TM2-immobilized magnetic beads. The format is binding. The following applies: human serum diluted 800 times, anti-human IgG detection. On the procedure:
In this Example, non-specific adsorption of serum protein to HALU TM2-immobilized magnetic beads was investigated.
TM2 D40NR104E and TM2 D40NR104EK141E were bonded covalently to magnetic beads (Dynabeads M-270 Carboxylic Acid, Dynal) by the process described in paragraph 1-9) of Example 1, and the amount of human serum protein adsorbed to the beads was measured. The amount of each HALU TM2 immobilized to the magnetic beads was adjusted to 10 μg/100 μL beads. Human serum (CHEMICON) was diluted 800 times with a PBS buffer, and the HALU TM2-immobilized magnetic beads (50 μL) to which a certain amount of protein was immobilized were added to the diluted human serum, followed by mixing by turning the tube containing the beads upside down at room temperature for 15 minutes. The magnetic beads were washed with a PBS buffer containing 0.1% Tween 20 (PBST, 500 μL) four times and were then subjected to antigen-antibody reaction at room temperature for 15 minutes with HRP-labeled anti-human IgG mouse antibody (100 μL) diluted 5000 times with PBST containing 0.5% BSA. Subsequently, the beads were washed with PBST (500 μL) five times, followed by color development with 1-Step Ultra TMB-ELISA (100 μL). After termination of the color development with 2M sulfuric acid (100 μL), the magnetic beads were collected with a magnet. The absorbance at 450 nm of the supernatant was measured with an Infinite 200 microplate reader.

Substitutions are numbered along the chain they refer to. In names and notes the source's numbering stands.

For the molecule streptavidin [reference compound], the “Thermal stability (temp. at which 50% of protein was lost)” value in series [1] stood at 70 °C.

B1: TM2 R104EK141E: TM2 mutant, arginine 104 and lysine 141 each replaced with glutamic acid; SEQ ID NO: 16 (protein)
chain: MSDVQSSLTGTWYNELNSKMELTANKDGTLTGKYLSKVGDVYVPYPLSGRYNLQPPAGQGVALGWAVSWENSKIHSATTWSGQFFSESSPVILTQWLLSSSTAEGDVWESTLVGNDSFTKTAPTEQQIAHAQLHCRAPRLE
modifications: Synthetic TM2 R104EK141E
In series [2], B1 returned a pI observed of 6.2. Moreover, in the series with human serum protein [3] (FIG. 1), the “decrease of adsorption to human serum protein compared to the wild type TM2” value is reported as 70% and the “non-specific binding to human serum protein compared to TM2” value was “significantly low”. The “Non-specific binding of serum protein (%)” value with human serum protein [3] (wild type TM2 = 100) amounted to 25%. The “Non-specific binding of DNA” value with Salmon sperm DNA was “lower than the detection limit”.

B2: TM2 D40NR104E: TM2 mutant having mutation of D40N and R104E; SEQ ID NO: 22 (protein)
chain: B1 chain with D40N, E141K
modifications: Synthetic TM2 D40NR104E
Turning to B2, the pI observed in series [2] turned out to be 8.9. Also, the ka in series [4] is given as 1.4 × 10^6. Besides, the kd result in series [4] (values in parentheses) was “(2.9 × 10^−9)”. In series [1], the “Thermal stability (temp. at which 50% of protein was lost)” value was 78 °C. Moreover, the entries for the “Non-specific binding to serum protein (A450)” value in the series with human serum protein [5] and with human serum protein [5] (listed as D40NR104E) were “low” and 0.56, respectively.
